Measurements published in US9708383 (Novo Nordisk, dated 2017).
*1 amine or outer side, *2 acyl side, *3 side chain or, on linkers, in order; H or OH if unused. Where no end group is shown, it is not given here. Side-chain parts run from the residue outwards. The star is where a group is joined. 8‑(4-carboxyphenoxy)octanoyl = O=C(O)c1ccc(OCCCCCCCC(=O)*)cc1; Decanoyl(10-(4-HOOC-PhO)) = O=C(O)c1ccc(OCCCCCCCCCC(=O)*)cc1; γGlu = O=C(O)[C@H](CCC(=O)[*:2])N[*:1]; 13‑carboxytridecanoyl = C14 diacid; Butanoyl(4-Ph) = O=C(CCCc1ccccc1)*; AEEA = NCCOCCOCC(=O)O; Ahx = NCCCCCC(=O)O

The binders below were run against T1, human GLP-1 receptor (human, UniProt P43220 24-463) (assay: SPA, 2.0% vs 0.005% HSA).
T1 construct: whole, on cells; Used as purified membranes of the transfected hamster cells, not whole cells; also called hGLP-1
Method: (§1) A shift in the binding affinity, $IC50$, is an indication that the derivative in question binds to albumin, and thereby a prediction of a potential protracted pharmacokinetic profile of the derivative in question in animal models.
(§2) 25 ul (microliter) of test compounds are added to Optiplate. HSA ("high albumin" experiment containing 2% HSA), or buffer ("low albumin" experiment containing 0.005% HSA), was added (50 ul). 5-10 µg protein/sample was added (50 ul) corresponding to 0.1-0.2 mg protein/ml (to be preferably optimised for each membrane preparation). SPA-particles (Wheatgerm agglutinin SPA beads, Perkin Elmer, #RPNQ0001) were added in an amount of 0.5 mg/well (50 ul). […] The plates were sealed with PlateSealer and incubated for 120 minutes at 30° C. while shaking. The plates were centrifuged (1500 rpm, 10 min) and counted in Topcounter.
In the case of HAEGTFTSDVSK([AEEA-AEEA-γGlu-13‑carboxytridecanoyl])YLEEEAVRK([AEEA-AEEA-γGlu-13‑carboxytridecanoyl])FIAWLVRGRG [GLP-1 derivative of Example 57: [Lys18,Glu22,Glu23,Val25,Arg26,Lys27,Arg34]-GLP-1-(7-37)-peptide], the “ratio IC50 high HSA/IC50 low HSA” value is reported as > 1.
With HAEGTFTSDVSK([AEEA-AEEA-γGlu-γGlu-γGlu-13‑carboxytridecanoyl])YLEGQAAREFIAK([AEEA-AEEA-γGlu-γGlu-γGlu-13‑carboxytridecanoyl])LVRGRG [GLP-1 derivative of Example 91: [Lys18,Arg26,Lys31,Arg34]-GLP-1-(7-37)-peptide] the “ratio IC50 high HSA/IC50 low HSA” value was > 1.
For HAEGTFTSDVSK([AEEA-AEEA-γGlu-13‑carboxytridecanoyl])YLEEQAAHK([AEEA-AEEA-γGlu-13‑carboxytridecanoyl])FIAHLVQGRG [GLP-1 derivative of Example 119: [Lys18,Glu22,His26,Lys27,His31,Gln34]-GLP-1-(7-37)-peptide], the “ratio IC50 high HSA/IC50 low HSA” value was > 1.
HAEGTFTSDVSK([AEEA-AEEA-AEEA-AEEA-AEEA-AEEA-γGlu-13‑carboxytridecanoyl])YLEEQAVREFIAK([AEEA-AEEA-AEEA-AEEA-AEEA-AEEA-γGlu-13‑carboxytridecanoyl])LVRGRG [GLP-1 derivative of Example 99: [Lys18,Glu22,Val25,Arg26,Lys31,Arg34]-GLP-1-(7-37)-peptide] was tested, and the “ratio IC50 high HSA/IC50 low HSA” value was > 1.
HAEGTFTSDVSK([AEEA-AEEA-γGlu-13‑carboxytridecanoyl])YLEEEAVRK([AEEA-AEEA-γGlu-13‑carboxytridecanoyl])FIAWLVQGRG [GLP-1 derivative of Example 58: [Lys18,Glu22,Glu23,Val25,Arg26,Lys27,Gln34]-GLP-1-(7-37)-peptide] was tested, and the “ratio IC50 high HSA/IC50 low HSA” value was > 1.
HAEGTFTSDVSK([AEEA-AEEA-AEEA-AEEA-γGlu-13‑carboxytridecanoyl])YLEEQAVREFIAK([AEEA-AEEA-AEEA-AEEA-γGlu-13‑carboxytridecanoyl])LVRGRG [GLP-1 derivative of Example 98: [Lys18,Glu22,Val25,Arg26,Lys31,Arg34]-GLP-1-(7-37)-peptide] was tested, and the “ratio IC50 high HSA/IC50 low HSA” value was > 1.
For HAEGTFTSDVSK([AEEA-AEEA-γGlu-Decanoyl(10-(4-HOOC-PhO))])YLEEQAAK([AEEA-AEEA-γGlu-Decanoyl(10-(4-HOOC-PhO))])EFIAWLVRGRG [GLP-1 derivative of Example 94: [Lys18,Glu22,Arg34]-GLP-1-(7-37)-peptide], the “ratio IC50 high HSA/IC50 low HSA” value was > 1.
With HAEGTFTSDVSK([AEEA-AEEA-γGlu-13‑carboxytridecanoyl])YLEGQAAHEFIAK([AEEA-AEEA-γGlu-13‑carboxytridecanoyl])LVRGRG (position 26 of the entry may not be His) [GLP-1 derivative of Example 72: [Lys18,His26,Lys31,Arg34]-GLP-1-(7-37)-peptide] the “ratio IC50 high HSA/IC50 low HSA” value was > 1.
In the case of HAEGTFTSDVSK([AEEA-AEEA-γGlu-Decanoyl(10-(4-HOOC-PhO))])YLEGQAAK([AEEA-AEEA-γGlu-Decanoyl(10-(4-HOOC-PhO))])EFIAWLVRGRG [GLP-1 derivative of Example 95: [Lys18,Arg34]-GLP-1-(7-37)-peptide], the “ratio IC50 high HSA/IC50 low HSA” value is reported as > 1.
For HAEGTFTSDVSK([AEEA-AEEA-γGlu-8‑(4-carboxyphenoxy)octanoyl])YLEEQAAK([AEEA-AEEA-γGlu-8‑(4-carboxyphenoxy)octanoyl])EFIAWLVQGRG [GLP-1 derivative of Example 89: [Lys18,Glu22,Gln34]-GLP-1-(7-37)-peptide], the “ratio IC50 high HSA/IC50 low HSA” value was > 1.
HAEGTFTSDVSK([AEEA-AEEA-γGlu-13‑carboxytridecanoyl])YLEEQAAHK([AEEA-AEEA-γGlu-13‑carboxytridecanoyl])FIAHLVRGRG [GLP-1 derivative of Example 62: [Lys18,Glu22,His26,Lys27,His31,Arg34]-GLP-1-(7-37)-peptide] was tested, and the “ratio IC50 high HSA/IC50 low HSA” value was > 1.
With HAEGTFTSDVSK([AEEA-AEEA-γGlu-13‑carboxytridecanoyl])YLEEQAAHK([AEEA-AEEA-γGlu-13‑carboxytridecanoyl])FIAWLVQGRG [GLP-1 derivative of Example 61: [Lys18,Glu22,His26,Lys27,Gln34]-GLP-1-(7-37)-peptide] the “ratio IC50 high HSA/IC50 low HSA” value was > 1.
In the case of HAEGTFTSDVSK([AEEA-AEEA-γGlu-Ahx-γGlu-Butanoyl(4-Ph)])YLEGQAAK([AEEA-AEEA-γGlu-Ahx-γGlu-Butanoyl(4-Ph)])EFIAWLVRGRG [GLP-1 derivative of Example 110: [Lys18,Arg34]-GLP-1-(7-37)-peptide], the “ratio IC50 high HSA/IC50 low HSA” value is reported as > 1.
HAEGTFTSDVSK([AEEA-AEEA-γGlu-13‑carboxytridecanoyl])YLEEQAAK([AEEA-AEEA-γGlu-13‑carboxytridecanoyl])EFIAWLVRGRG [GLP-1 derivative of Example 96: [Lys18,Glu22,Arg34]-GLP-1-(7-37)-peptide] was tested, and the “ratio IC50 high HSA/IC50 low HSA” value was > 1.
For HAEGTFTSDVSK([γGlu-AEEA-AEEA-13‑carboxytridecanoyl])YLEGQAVREFIAK([γGlu-AEEA-AEEA-13‑carboxytridecanoyl])LVRGRG [GLP-1 derivative of Example 104: [Lys18,Val25,Arg26,Lys31,Arg34]-GLP-1-(7-37)-peptide], the “ratio IC50 high HSA/IC50 low HSA” value was > 1.

The binders below were run against T1, human GLP-1 receptor (assay: SPA, displacement of 125I-GLP-1(7-36)NH2, 0.005% HSA).
Method: as §1, §2
In the case of HAEGTFTSDVSK([AEEA-AEEA-γGlu-13‑carboxytridecanoyl])YLEEEAVRK([AEEA-AEEA-γGlu-13‑carboxytridecanoyl])FIAWLVRGRG [GLP-1 derivative of Example 57: [Lys18,Glu22,Glu23,Val25,Arg26,Lys27,Arg34]-GLP-1-(7-37)-peptide], the IC50 is reported as < 1000 nM.
For HAEGTFTSDVSK([AEEA-AEEA-γGlu-γGlu-γGlu-13‑carboxytridecanoyl])YLEGQAAREFIAK([AEEA-AEEA-γGlu-γGlu-γGlu-13‑carboxytridecanoyl])LVRGRG [GLP-1 derivative of Example 91: [Lys18,Arg26,Lys31,Arg34]-GLP-1-(7-37)-peptide], the IC50 was < 1000 nM.
HAEGTFTSDVSK([AEEA-AEEA-γGlu-13‑carboxytridecanoyl])YLEEQAAHK([AEEA-AEEA-γGlu-13‑carboxytridecanoyl])FIAHLVQGRG [GLP-1 derivative of Example 119: [Lys18,Glu22,His26,Lys27,His31,Gln34]-GLP-1-(7-37)-peptide] was tested, and the IC50 was < 1000 nM.
In the case of HAEGTFTSDVSK([AEEA-AEEA-AEEA-AEEA-AEEA-AEEA-γGlu-13‑carboxytridecanoyl])YLEEQAVREFIAK([AEEA-AEEA-AEEA-AEEA-AEEA-AEEA-γGlu-13‑carboxytridecanoyl])LVRGRG [GLP-1 derivative of Example 99: [Lys18,Glu22,Val25,Arg26,Lys31,Arg34]-GLP-1-(7-37)-peptide], the IC50 is reported as < 1000 nM.
In the case of HAEGTFTSDVSK([AEEA-AEEA-γGlu-13‑carboxytridecanoyl])YLEEEAVRK([AEEA-AEEA-γGlu-13‑carboxytridecanoyl])FIAWLVQGRG [GLP-1 derivative of Example 58: [Lys18,Glu22,Glu23,Val25,Arg26,Lys27,Gln34]-GLP-1-(7-37)-peptide], the IC50 is reported as < 1000 nM.
In the case of HAEGTFTSDVSK([AEEA-AEEA-AEEA-AEEA-γGlu-13‑carboxytridecanoyl])YLEEQAVREFIAK([AEEA-AEEA-AEEA-AEEA-γGlu-13‑carboxytridecanoyl])LVRGRG [GLP-1 derivative of Example 98: [Lys18,Glu22,Val25,Arg26,Lys31,Arg34]-GLP-1-(7-37)-peptide], the IC50 is reported as < 1000 nM.
With HAEGTFTSDVSK([AEEA-AEEA-γGlu-Decanoyl(10-(4-HOOC-PhO))])YLEEQAAK([AEEA-AEEA-γGlu-Decanoyl(10-(4-HOOC-PhO))])EFIAWLVRGRG [GLP-1 derivative of Example 94: [Lys18,Glu22,Arg34]-GLP-1-(7-37)-peptide] the IC50 was < 1000 nM.
For HAEGTFTSDVSK([AEEA-AEEA-γGlu-13‑carboxytridecanoyl])YLEGQAAHEFIAK([AEEA-AEEA-γGlu-13‑carboxytridecanoyl])LVRGRG (position 26 of the entry may not be His) [GLP-1 derivative of Example 72: [Lys18,His26,Lys31,Arg34]-GLP-1-(7-37)-peptide], the IC50 was < 1000 nM.
For HAEGTFTSDVSK([AEEA-AEEA-γGlu-Decanoyl(10-(4-HOOC-PhO))])YLEGQAAK([AEEA-AEEA-γGlu-Decanoyl(10-(4-HOOC-PhO))])EFIAWLVRGRG [GLP-1 derivative of Example 95: [Lys18,Arg34]-GLP-1-(7-37)-peptide], the IC50 was < 1000 nM.
For HAEGTFTSDVSK([AEEA-AEEA-γGlu-8‑(4-carboxyphenoxy)octanoyl])YLEEQAAK([AEEA-AEEA-γGlu-8‑(4-carboxyphenoxy)octanoyl])EFIAWLVQGRG [GLP-1 derivative of Example 89: [Lys18,Glu22,Gln34]-GLP-1-(7-37)-peptide], the IC50 was < 1000 nM.
In the case of HAEGTFTSDVSK([AEEA-AEEA-γGlu-13‑carboxytridecanoyl])YLEEQAAHK([AEEA-AEEA-γGlu-13‑carboxytridecanoyl])FIAHLVRGRG [GLP-1 derivative of Example 62: [Lys18,Glu22,His26,Lys27,His31,Arg34]-GLP-1-(7-37)-peptide], the IC50 is reported as < 1000 nM.
In the case of HAEGTFTSDVSK([AEEA-AEEA-γGlu-13‑carboxytridecanoyl])YLEEQAAHK([AEEA-AEEA-γGlu-13‑carboxytridecanoyl])FIAWLVQGRG [GLP-1 derivative of Example 61: [Lys18,Glu22,His26,Lys27,Gln34]-GLP-1-(7-37)-peptide], the IC50 is reported as < 1000 nM.
In the case of HAEGTFTSDVSK([AEEA-AEEA-γGlu-Ahx-γGlu-Butanoyl(4-Ph)])YLEGQAAK([AEEA-AEEA-γGlu-Ahx-γGlu-Butanoyl(4-Ph)])EFIAWLVRGRG [GLP-1 derivative of Example 110: [Lys18,Arg34]-GLP-1-(7-37)-peptide], the IC50 is reported as < 1000 nM.
For HAEGTFTSDVSK([AEEA-AEEA-γGlu-13‑carboxytridecanoyl])YLEEQAAK([AEEA-AEEA-γGlu-13‑carboxytridecanoyl])EFIAWLVRGRG [GLP-1 derivative of Example 96: [Lys18,Glu22,Arg34]-GLP-1-(7-37)-peptide], the IC50 was < 1000 nM.
For HAEGTFTSDVSK([γGlu-AEEA-AEEA-13‑carboxytridecanoyl])YLEGQAVREFIAK([γGlu-AEEA-AEEA-13‑carboxytridecanoyl])LVRGRG [GLP-1 derivative of Example 104: [Lys18,Val25,Arg26,Lys31,Arg34]-GLP-1-(7-37)-peptide], the IC50 was < 1000 nM.
